The results in this text go back to publication PMC5680780.

The experiment deals with recombinant Clonorchis sinensis pyruvate kinase (Clonorchis sinensis). The experiment in a line: native gel or EMSA + SEC; purified rCsPK on 8% native PAGE against marker proteins; gel filtration on a Sepharose 12 10/300 GL column (AKTA FPLC), 0.8 ml/min, 50 mM Tris-HCl, 100 mM KCl, pH 7.5; apparent Mr about 290 kDa against a subunit of about 58 kDa.

What is called stoichiometry N is a count of units in the complex or per binding partner. With “recombinant Clonorchis sinensis pyruvate kinase (enzyme)”, the stoichiometry N was 5.
